These results are taken from the FLAb antibody collection (doi:10.1101/2023.12.08.570889).

B1: unnamed (protein)
chain 1: EVQLLESGGGLVQPGGSLRLSCAASGFTFSQYGMDWVRQAPGKGLEWVSGIGPSGGSTVYADSVKGRFTISRDNSKNTLYLQMNSLRAEDTAVYYCARDGSAYYYAFDVWGQGTTVTVSS
chain 2: DIQMTQSPSSLSASVGDRVTITCQASQDISNYLNWYQQKPGKAPKLLIYDASNLETGVPSRFSGSGSGTDFTFTISSLQPEDIATYYCQQADSFPVTFGGGTKVEIK
B2: unnamed (protein)
chain 1: B1 chain 1 with A97T, S101P, Y103W, V109Y
chain 2: B1 chain 2
B3: unnamed (protein)
chain 1: B1 chain 1 with A97T, D99G, S101P, A102S, Y103W
chain 2: B1 chain 2
B4: unnamed (protein)
chain 1: B1 chain 1 with A97T, S101P, A102W
chain 2: B1 chain 2
B5: unnamed (protein)
chain 1: B1 chain 1 with A97T, S101P, A102S, A106G
chain 2: B1 chain 2
B6: unnamed (protein)
chain 1: B1 chain 1 with S101P, V109Y
chain 2: B1 chain 2
B7: unnamed (protein)
chain 1: B1 chain 1 with S101P, A102S
chain 2: B1 chain 2
B8: unnamed (protein)
chain 1: B1 chain 1 with A97T, S101P, V109I
chain 2: B1 chain 2
B9: unnamed (protein)
chain 1: B1 chain 1 with A97T, S101P, V109Y
chain 2: B1 chain 2
B10: unnamed (protein)
chain 1: B1 chain 1 with S101P, A106G
chain 2: B1 chain 2

Changes are numbered by the printed parent chain.

For this experiment, the target named is FXI. Description: Kd (SPR).
For orientation: Kd means a measure of binding affinity in units of concentration. For the molecule B1, the Kd worked out at 270 nM.
B2 gave an equilibrium dissociation constant (Kd) of 78.2 nM. Compared with the last molecule, the Kd is about 3.5-fold lower.
On to B3, for which the dissociation constant (Kd) is 210 nM.
Molecule B4 displayed a Kd of 79.8 nM.
B5: the Kd worked out at 95.3 nM. This Kd and that of the molecule before are within 1.5-fold of each other.
In the case of B6, the Kd worked out at 106 nM.
With B7, the Kd came to 134 nM.
Take B8: the Kd is 109 nM.
In the case of B9, the dissociation constant Kd was 147 nM.
In the case of B10, the dissociation constant (Kd) was 175 nM.
